We go through four molecules from PMC8809517, “Cofactor-independent RNA editing by a synthetic S-type PPR protein”.

Experiment in all cases: high-throughput RNA pulldown from lysate on Ni-NTA beads; HRP: 50 mM Tris pH 8, 150 mM NaCl, 1 mM beta-mercaptoethanol, 50 ug/ml BSA, 3 ug/ml yeast RNA, 0.5% heparin; ITC and FP: Tris pH 8, 200 mM KCl, 5% glycerol; MST: 50 mM Tris pH 8, 200 mM NaCl, 1 mM DTT, BSA, heparin, 0.05% Tween 20
Common to all, as to settings: tags: N-terminal His-eGFP

Series [1] concerns the target T1, GFP-9S library array, motif 4 ND N98T;D124E (synthetic construct, N98T;D124E).
T1 chain: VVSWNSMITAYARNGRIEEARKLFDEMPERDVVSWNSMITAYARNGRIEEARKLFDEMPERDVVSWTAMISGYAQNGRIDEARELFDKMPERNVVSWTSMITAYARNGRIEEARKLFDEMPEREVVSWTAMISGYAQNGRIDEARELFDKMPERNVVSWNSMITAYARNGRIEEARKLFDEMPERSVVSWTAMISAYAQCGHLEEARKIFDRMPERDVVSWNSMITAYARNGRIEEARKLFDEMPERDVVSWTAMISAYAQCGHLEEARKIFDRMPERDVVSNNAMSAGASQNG

Series [2] deals with T2, GFP-9S library array, motif 4 ND N98I (synthetic construct, N98I).
T2 chain: T1 chain with T98I, E124D

In series [3] the target is T3, GFP-9S library array, motif 4 ND N98V;D124S (synthetic construct, N98V;D124S).
T3 chain: T1 chain with T98V, E124S

The target of series [4] is T4, GFP-9S library array, motif 4 ND N98I;D124N (synthetic construct, N98I;D124N).
T4 chain: T1 chain with T98I, E124N

In series [5] the target is T5, GFP-9S library array, motif 4 ND N98A;D124L (synthetic construct, N98A;D124L).
T5 chain: T1 chain with T98A, E124L

Substitutions are numbered along the chain they refer to.

A word on the Kd: it is the constant that tells how readily two partners part at equilibrium. Higher therefore signals lower affinity. As to AUUACACGUGA (ssRNA) [Cy5-rpoA], the dissociation constant Kd is 258 nM in series [1] (label: 5' Cy5); 153 nM in series [2] (label: 5' Cy5); 69.5 nM in series [3] (label: 5' Cy5); 96.4 nM in series [4] (label: 5' Cy5); 129 nM in series [5] (label: 5' Cy5).

With AUUAGACGUGA (ssRNA) [Cy5-rpoA-G], the Kd in series [1] (label: 5' Cy5) is 13.2 nM; in series [2] (label: 5' Cy5) it was 127 nM; in series [3] (label: 5' Cy5), 50.4 nM; in series [4] (label: 5' Cy5), 117 nM; in series [5] (label: 5' Cy5), 134 nM.

On to AUUAAACGUGA (ssRNA) [IR-rpoA-A], for which the Kd came to 185 nM in series [1] (label: 5' IRDye 800CW); 175 nM in series [2] (label: 5' IRDye 800CW); 26.8 nM in series [3] (label: 5' IRDye 800CW); 150 nM in series [4] (label: 5' IRDye 800CW); 272 nM in series [5] (label: 5' IRDye 800CW).

In the case of AUUAUACGUGA (ssRNA) [IR-rpoA-U], the Kd was found to be 134 nM in series [1] (label: 5' IRDye 800CW); 53.5 nM in series [2] (label: 5' IRDye 800CW); 50.3 nM in series [3] (label: 5' IRDye 800CW); 18.2 nM in series [4] (label: 5' IRDye 800CW); 255 nM in series [5] (label: 5' IRDye 800CW).
